The source of these data is article PMC6449940, “The Cdc42 effectors Gic1 and Gic2 regulate polarized post-Golgi secretion” (Cell & Bioscience, 2019).

In the assay the target is T1, His6-Cdc42 (S. cerevisiae, UniProt P19073 1-191).
T1 construct: Cdc42, small GTPase, S. cerevisiae; also called Hisx6-Cdc42; Cdc42 wild type; source: bacteria, purified (Hisx6 fusion)
Kind of assay: pull-down; GST-Sec3N (a.a.71–241) on glutathione Sepharose (20 μg), His6-Cdc42 or mutant (10 μg) in the presence of GTPγS; bound protein detected with anti-Hisx6 antibody. To be noted: both partners purified.

T1 sequence (P19073 whole entry, the tested form may be a part): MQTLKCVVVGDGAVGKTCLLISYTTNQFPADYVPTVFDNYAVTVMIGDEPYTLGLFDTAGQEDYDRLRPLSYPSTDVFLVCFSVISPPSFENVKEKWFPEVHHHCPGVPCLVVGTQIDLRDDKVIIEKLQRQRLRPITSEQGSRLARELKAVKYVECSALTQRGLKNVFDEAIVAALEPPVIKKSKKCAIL

B1: GST-Sec3N (a.a.71–241) (domain or fragment, S. cerevisiae (budding yeast), UniProt P33332 71-241, looked up)
chain: SSQTSNFLAEQYERDRKAIINCCFSRPDHKTGEPPNNYITHVRIIEDSKFPSSRPPPDSKLENKKKRLLILSAKPNNAKLIQIHKARENSDGSFQIGRTWQLTELVRVEKDLEISEGFILTMSKKYYWETNSAKERTVFIKSLITLYIQTFEGHVPELVNWDLSLFYLDER
notes: Sec3, exocyst subunit, budding yeast, residues 71-241 (N-terminus, PH domain-like region); also called Amino-terminus of Sec3 (a.a.71–241); source: GST fusion protein, purified and conjugated to glutathione Sepharose
B1: the binding result is “binds”.
